Consider three proteins from publication PMC9637102, “Structural basis for the activation of the lipid scramblase TMEM16F” (Nature Communications, 2022).

Data set [1] deals with the molecule itself. Kind of data set: cryo-EM structure; protein in digitonin (20 mM HEPES pH 7.4, 150 mM NaCl, 2 mM EGTA, 0.1% digitonin), 1.5-2 mg/ml; Ca2+-free, or with 2 mM free CaCl2 and 0.01 mM diC8-PI(4,5)P2; homodimer.
Data set [2] concerns the molecule itself. As to the kind of experiment: cryo-EM structure; protein in GDN (0.03% in the SEC buffer), Ca2+-bound; homodimer.

B1: murine TMEM16F mutant F518H (natural protein, UniProt Q6P9J9 1-911, looked up)
chain: MQMMTRKVLLNMELEEDDDEDGDIVLENFDQTIVCPTFGSLENQQDFRTPEFEEFNGKPDSLFFTDGQRRIDFILVYEDESKKENNKKGTNEKQKRKRQAYESNLICHGLQLEATRSVSDDKLVFVKVHAPWEVLCTYAEIMHIKLPLKPNDLKTRSPFGNLNWFTKVLRVNESVIKPEQEFFTAPFEKSRMNDFYILDRDSFFNPATRSRIVYFILSRVKYQVMNNVNKFGINRLVSSGIYKAAFPLHDCRFNYESEDISCPSERYLLYREWAHPRSIYKKQPLDLIRKYYGEKIGIYFAWLGYYTQMLLLAAVVGVACFLYGYLDQDNCTWSKEVCDPDIGGQILMCPQCDRLCPFWRLNITCESSKKLCIFDSFGTLIFAVFMGVWVTLFLEFWKRRQAELEYEWDTVELQQEEQARPEYEAQCNHVVINEITQEEERIPFTTCGKCIRVTLCASAVFFWILLIIASVIGIIVYRLSVFIVFSTTLPKNPNGTDPIQKYLTPQMATSITASIISHIIIMILNTIYEKVAIMITNFELPRTQTDYENSLTMKMFLFQFVNYYSSCFYIAFFKGKFVGYPGDPVYLLGKYRSEECDPGGCLLELTTQLTIIMGGKAIWNNIQEVLLPWVMNLIGRYKRVSGSEKITPRWEQDYHLQPMGKLGLFYEYLEMIIQFGFVTLFVASFPLAPLLALVNNILEIRVDAWKLTTQFRRMVPEKAQDIGAWQPIMQGIAILAVVTNAMIIAFTSDMIPRLVYYWSFSIPPYGDHTYYTMDGYINNTLSVFNITDFKNTDKENPYIGLGNYTLCRYRDFRNPPGHPQEYKHNIYYWHVIAAKLAFIIVMEHIIYSVKFFISYAIPDVSKITKSKIKREKYLTQKLLHESHLKDLTKNMGIIAERIGGTVDNSVRPKLE
notes: TMEM16F (anoctamin-6), murine; point mutant F518H; A 3C recognition site stands between TMEM16F and the C-terminal Myc and SBP tags; no cleavage is described; also called F518H^noCa; F518H^Ca; source: TMEM16F KO cells in suspension culture, transient transfection (PEI MAX); purified (Strep-tactin, SEC on Superose 6) in digitonin, or reconstituted into MSP 2N2 nanodiscs (3 POPC:1 POPG)
In the case of B1, the binding result in data set [1] was “binds”.

B2: murine TMEM16F double mutant F518A/Q623A (natural protein, UniProt Q6P9J9 1-911, looked up)
chain: MQMMTRKVLLNMELEEDDDEDGDIVLENFDQTIVCPTFGSLENQQDFRTPEFEEFNGKPDSLFFTDGQRRIDFILVYEDESKKENNKKGTNEKQKRKRQAYESNLICHGLQLEATRSVSDDKLVFVKVHAPWEVLCTYAEIMHIKLPLKPNDLKTRSPFGNLNWFTKVLRVNESVIKPEQEFFTAPFEKSRMNDFYILDRDSFFNPATRSRIVYFILSRVKYQVMNNVNKFGINRLVSSGIYKAAFPLHDCRFNYESEDISCPSERYLLYREWAHPRSIYKKQPLDLIRKYYGEKIGIYFAWLGYYTQMLLLAAVVGVACFLYGYLDQDNCTWSKEVCDPDIGGQILMCPQCDRLCPFWRLNITCESSKKLCIFDSFGTLIFAVFMGVWVTLFLEFWKRRQAELEYEWDTVELQQEEQARPEYEAQCNHVVINEITQEEERIPFTTCGKCIRVTLCASAVFFWILLIIASVIGIIVYRLSVFIVFSTTLPKNPNGTDPIQKYLTPQMATSITASIISAIIIMILNTIYEKVAIMITNFELPRTQTDYENSLTMKMFLFQFVNYYSSCFYIAFFKGKFVGYPGDPVYLLGKYRSEECDPGGCLLELTTQLTIIMGGKAIWNNIAEVLLPWVMNLIGRYKRVSGSEKITPRWEQDYHLQPMGKLGLFYEYLEMIIQFGFVTLFVASFPLAPLLALVNNILEIRVDAWKLTTQFRRMVPEKAQDIGAWQPIMQGIAILAVVTNAMIIAFTSDMIPRLVYYWSFSIPPYGDHTYYTMDGYINNTLSVFNITDFKNTDKENPYIGLGNYTLCRYRDFRNPPGHPQEYKHNIYYWHVIAAKLAFIIVMEHIIYSVKFFISYAIPDVSKITKSKIKREKYLTQKLLHESHLKDLTKNMGIIAERIGGTVDNSVRPKLE
notes: TMEM16F (anoctamin-6), murine; double mutant F518A and Q623A; A 3C recognition site stands between TMEM16F and the C-terminal Myc and SBP tags; no cleavage is described; source: TMEM16F KO cells in suspension culture, transient transfection (PEI MAX); purified (Strep-tactin, SEC on Superose 6) in GDN
Regarding B2, the binding result in data set [2] was “binds”.

B3: murine TMEM16F mutant N562A (natural protein, UniProt Q6P9J9 1-911, looked up)
chain: MQMMTRKVLLNMELEEDDDEDGDIVLENFDQTIVCPTFGSLENQQDFRTPEFEEFNGKPDSLFFTDGQRRIDFILVYEDESKKENNKKGTNEKQKRKRQAYESNLICHGLQLEATRSVSDDKLVFVKVHAPWEVLCTYAEIMHIKLPLKPNDLKTRSPFGNLNWFTKVLRVNESVIKPEQEFFTAPFEKSRMNDFYILDRDSFFNPATRSRIVYFILSRVKYQVMNNVNKFGINRLVSSGIYKAAFPLHDCRFNYESEDISCPSERYLLYREWAHPRSIYKKQPLDLIRKYYGEKIGIYFAWLGYYTQMLLLAAVVGVACFLYGYLDQDNCTWSKEVCDPDIGGQILMCPQCDRLCPFWRLNITCESSKKLCIFDSFGTLIFAVFMGVWVTLFLEFWKRRQAELEYEWDTVELQQEEQARPEYEAQCNHVVINEITQEEERIPFTTCGKCIRVTLCASAVFFWILLIIASVIGIIVYRLSVFIVFSTTLPKNPNGTDPIQKYLTPQMATSITASIISFIIIMILNTIYEKVAIMITNFELPRTQTDYENSLTMKMFLFQFVAYYSSCFYIAFFKGKFVGYPGDPVYLLGKYRSEECDPGGCLLELTTQLTIIMGGKAIWNNIQEVLLPWVMNLIGRYKRVSGSEKITPRWEQDYHLQPMGKLGLFYEYLEMIIQFGFVTLFVASFPLAPLLALVNNILEIRVDAWKLTTQFRRMVPEKAQDIGAWQPIMQGIAILAVVTNAMIIAFTSDMIPRLVYYWSFSIPPYGDHTYYTMDGYINNTLSVFNITDFKNTDKENPYIGLGNYTLCRYRDFRNPPGHPQEYKHNIYYWHVIAAKLAFIIVMEHIIYSVKFFISYAIPDVSKITKSKIKREKYLTQKLLHESHLKDLTKNMGIIAERIGGTVDNSVRPKLE
notes: TMEM16F (anoctamin-6), murine; point mutant N562A; A 3C recognition site stands between TMEM16F and the C-terminal Myc and SBP tags; no cleavage is described; also called N562A^Ca; N562A^Cacc; source: TMEM16F KO cells in suspension culture, transient transfection (PEI MAX); purified (Strep-tactin, SEC on Superose 6) in digitonin
As for B3, the binding result in data set [1] was “binds”.
